Data taken from PMC9095979, “Optimization of eIF4E-Binding Peptide Pep8 to Disrupt the RBM38-eIF4E Complex for Induction of p53 and Tumor Suppression” (Frontiers in Oncology, 2022).

Biological target: T1, eIF4E (purified, from pTXB1-eIF4E) (UniProt P06730 1-217)
T1 construct: also called purified eIF4E; source: pTXB1-eIF4E; protein expression and purification as previously described (12)
Test: pull-down; competitive: GST-RBM38 on GST beads, 250 µg purified eIF4E and 10 µM peptide in lysis buffer (50 mM Tris pH 7.5, 150 mM NaCl, 0.1% Triton X-100), rocked overnight, washed 3x, western blot
Settings: both partners purified

T1 sequence (P06730 whole entry): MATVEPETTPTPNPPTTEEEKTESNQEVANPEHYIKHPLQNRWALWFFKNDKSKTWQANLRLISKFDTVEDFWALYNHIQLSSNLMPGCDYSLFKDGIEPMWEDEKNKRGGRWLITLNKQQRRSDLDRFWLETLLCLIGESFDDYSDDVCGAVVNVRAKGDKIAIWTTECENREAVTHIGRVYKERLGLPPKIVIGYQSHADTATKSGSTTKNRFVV

binding result: binds
B1: Pep7 (peptide)
peptide: PSAASPV
notes: also called Pep7-PSAASPV; shortened 7-amino acid peptide; source: synthetic peptide (GenScript)
